Experimental data from the DeepSol protein solubility set.

Assay: soluble on expression in E. coli; label from the status in PepcDB or PDB records

Row | Sequence | soluble on expression in E. coli
1 | MGSDKIHHHHHHMTTTPFNRLLLTGAAGGLGKVLRERLKGYAEVLRLSDISPMAPAAGPHEEVITCDLADKAAVHTLVEGVDAIIHFGGVSTEHAFEEILGPNICGVFHVYEAARKHGVKRIIFASSNHTIGFYRQDERIDAHAPRRPDSYYGLSKCYGEDVASFYFDRYGIETVSIRIGSSFPQPQNLRMLCTWLSYDDLVQLIERGLFTPGVGHTIVYGASDNRTVWWDNRHAAHLGYVPKDSSETFRAAVEAQPAPAADDPSMVYQGGAFAVAGPFN | not soluble
2 | MCETCLIVIMDSSHDFSFADTFALQVATWFSDVFAQPTVVQRQAWAAISAGENALVVAPTGSGKTLAAFLWALNELVQGSGQTALLSRQAAGSAEVEASRAKGVKVVYISPLKALGVDVENNLRAPLTGINQVAARLGIDQSDITVGVRSGDTPASERSKQVRNPPDILITTPESLYLMLTSKARSILTTVDTVIVDEIHAMAGTKRGVHLALSLERLEHLAAQPVQRIGLSATVRPLDVVARFLGGDRPVEVINPPLEKKWQLAVHVPVDDMSDLPTPEPVSEIGEATIDDPLGLTTQPEGFAESALPAQGSMWTFIEQDVFDEVMEHRSTLVFVNSRRTAERLTSRLNELYAQRFQPEALSPALRRPPAQLMKSIDIAGEATAIIARAHHGSVSKDERALTEKMLKQGELRAVVSTSSLELGIDMGAVDKVIQVESPPSVASGLQRVGRAGHVVGAVSHGSFYPKHRADLVQTAVTVGRMTEGLIEELHVPTNALDVLVQHTVAAVAMDDLDVEDWYATVVRAYPYRDLPREAFDAAIDLTAGVYPSTDFAELRPKVIYDRITGTLSARPGAQRTAVINGGTIPDRGMFGVFLVGSGESGAPRRVGELDEEMVYESRVGDVFTLGASSWRIEEINKDQVLVTPAPGHTGRLPFWTGDQAGRPAELGKALGAFRRTLVADPSVVEGMGLDVRARSNVVAFIQQQQESTGVVPDEVTLVLERFRDELGDWRVVLHSPYGRGVNAAWALVAGAAFSQRTGMDAQPVASDDGIVLRVPESDAEPGADLFEIDPDTVEELVAQQVGNSALFAARFRECAARALLLPSRTPGKRAPLWQQRQRAAQLLDVARKYPSFPIVLETVRECLHDVYDLDALVELAAALKLRKVRIAEVTTQQP | not soluble
3 | MEKIKIIVASDSIGETAELVARAGISQFNPKQCKNELLRYPYIESFEDVDEVIQVAKDTNAIIVYTLIKPEMKQYMSEKVAEFQLKSVDIMGPLMDLLSASVEEKPYNEPGIVHRLDDAYFKKIDAIEFAVKYDDGKDPKGLPKADIVLLGISRTSKTPLSQYLAHKSYKVMNVPIVPEVTPPDGLYDIDPKKCIALKISEEKLNRIRKERLKQLGLGDTARYATEARIQEELNYFEEIVSEIGCPVIDVSQKAIEETANDIIHYIEQNKSKLEHHHHHH | not soluble
4 | MAHHHHHHMPPKRYPNRLLVLCASINDVTAWPFWKFLQMKKIRGVTDMALLAFNSDGGSFEARIDGDKYQLKNYAKVRGYQHDMFESFVHRWHDPGRSYFVYGGHGMGDYVELEQNRVIAAGARARRRLRHACLRSSAL | not soluble
5 | MGSDKIHHHHHHMFEAFGDMSLDLLRAFEVAARLRSFTAAAIELGTIQPAVSQQIKRLEEQLATRLFDRIYRGIELTEAGEILFSHVQAGLQSIDSGLIAITEQQQHEVLQVATDFAFAAYWLMPRLHRFHKLNPDVDVSLVTSERTHSMLRADIDVTVLFGDGRFKQGESRWLFSEEVFPVCSPLLIADRQTPLPNDALRDFPLLHLRGDSINNWFDWSGVFRALDIPQAPAPGQLRFDNYTLLIQAAIGGQGIAIGWKHLVDDLLDQGLLCRPIAGAAISGHGYYVVLPQRKRRVQIVQQFMDWLASEQALSGVSLAGRPLPSIAV | not soluble
6 | VAVNNISNLINSRIRLTGISSGLDTDAIIEQLMSVERAKVDKIKQEKQILEWKRDIYRDIINKLRSITDEYFNVLKPKTNFTSQSAFTSFKISSSNESVVTVTANASAASKVHSITVHSLASAAKIVGTSGLVDGIKGSNAVNTLSLQGKEINVTLDGVTKTIALEDYTSLSDLETKLESALAKAFGTGKIDVVTTGGSIEFKCLLNGSTLSISDTANNYISSLGFSNGQKNFITGNSDVNSDFSLYTDGSFKITVGNGTAQTINISDATSIDDLVAKIQQAIDSNSELSGKVHVSNDGSKLTFISVSGETVKLTSGDSNNVLDKLGFSDGATITATSSTVIDLSGNEKGKTFIININGVDKIIEIDKDYNDLDELASYIQNQLGGTVNVTKDASGSRLVFSTGGADRLIFKKGPEDGLEKLGFTANDNRSNRISLTTKLDSLSTIFKNDLNIADPDANVVFTINGQTIDVGKTYANATLSDVMNAINSSSAGVKITYDSLNDRFIMESKTMGATSEIELTDTDPANGLLKAMGLIGGTYTAGTDAEFDLDGVTGMKRSTNEFTIEGVTYSLKGVSSEPVKIDVKADIDAVVENIKNFVNSYNEMLAKINSVLTEERYRDYLPLTDDQKKAMSEDDIKLWEQKAKSGLLRSDSILENIVTNLRRALYDKVEGCSLSLYQIGITTGSYQDKGKLVIDEEKLRAALTDNYDAVVQLFTQGSQYTYSEALNDPNKRAVRYKEAGIAQRIYDILQDNIRITRNANGKKGILLEKAGIAGDLTEYDNLIVNEIKAKETLIDEMLVKIYKKEEYYYSKFAAMEKMLDAMNSQSMWLTQQFSNYY | soluble
7 | MGSDKIHHHHHHMDNKKPKIITIASIKGGVGKSTSAIIMATLLAKEHKVLLIDMDTQASTTSYFYKEILNQNIDIVKINVYRVLKEKIDINDSIVKIKENLDLIPSYLTLNKFLSESIPLKELRLQNNLEFLKRRYHYVIIDTNPSLDYTLSNALMTSNCIIVPMTAEKWAVESLELLEFHMNNLKIKIPIFLVITRFKKNNTHKQLLQHVESKTGFLGFIHEREDLNKKIAKNEEFDMTKDYINEYKGVLSRFLIVYDEYVK | not soluble
8 | MSLRLSKTLCMAILAGSTLLAPNALMAMGGPSRVKIDWQIQGQMGMIKMNPYGLSPLTAIIMNNGYVLSDIKKNQMVKLFLNNVNSKMAKTYGGIPIFGLYPSYSKGKVSYTKTANGKSQKVIDEIYKITTPWASIEPSGRTDQRGTLFENVKVLKMDPKFSDRLYLVNNAPGKQSGKDSQSVWNNLVGGAMEWDENSNVFIIDTKGEIRWYYDNNKLMNWGNIYNRGIMISFRQNKDGALTWGFGQRYVKYDCLGREIFNRKLPAVYIDFSHAMDNMQNGHYFFNKYFASLRPDSKHVRTVCDTIIEVDENGNVVDDWRLYKILDPYRSTIIKTLDQSAVCLNIDASKVGKTLSDEELAKMDESDKFGDIAGIGRNWAHAYKGWNKEFQKYLLQPVDKNGNEWFYPVTSLTQYEPDKDSIMVYSATLEWLLILVKVSLGEPKPKIDEFNWGAKEPSVQIQFSGSGTDYQAMPFSVDQAFNPKEGHHHHHH | not soluble
9 | MRLERVLEEARAKGYPIEDNGLGNLWVVLPRERFKEEMAHYKAMGFNFLADIVGLDYLTYPDPRPERFAVVYELVSLPGWKDGDGSRFFVRVYVPEEDPRLPTVTDLWGSANFLEREVYDLFGIVFEGHPDLRKILTPEDLEGHPLRKDYPLGETPTLFREGRYIIPAEFRAALTGKDPGLTFYKGGSRKGYRSLWADLKKAREVKG | soluble
10 | MNIVIAAVGGQGAVLTSKILGTLAQNLGKDVKVSEVHGMSQRGGSVVAYVKFGDKVYSPVVEKGTADIVLAFEMLEGARYVDYLKENGKLVVNTQRIDPMPVITGDMEYPADLGEKLEELNIGYIPVDALSLAKNAGTIKAVNVALIGVLAQNSNIKKEEWIKAIKDTVPEKFLELNLKAFELGYNLE | soluble
11 | MKKIILVAALLSAAVCLPAQNKGGNKSGGINLSLWKKACTQPLDSTQTTYVNLGLFSAMHKLHGVGFNAFGSMVQNNMNGVQISGLANLAGGSMHGVQIGGISNVNGNNLAGLSVSGLVNITGNKAKGVLITGLSNIAGDNMRGLMMSGIMNITGDKAAGVQLAGLANVTGEEYDGLMMSGLLNVVGEEMNGLQLSGLANVTGGQMNGVQLGLFNFASKAKGLQIGLFNYHKEDMKGLQLGLVNANPQTKVQLMVFGGNSTKINVGARFKNKLFYTILGGGTHYLDFDDKFSAALFYRAGLELPLYRNLFVSGDLGYQHIETFRNKKVEGIPARLYALQARLNLEYRFTDKFGLFVTGGYGGSRYYNKARTYDKGVIAEAGVVLFMAGDPLEHHHHHH | not soluble
12 | MVSEAEFMAALAKFAETSATASAAADRVIAVANVDASRIADEFNALLGWAMKIATLLLEEISKNPSLKAEMAESHQMLFGNLGTIVPALLKFGPYINQILGNFGLSLGKLFGIVLAF | not soluble
13 | MGTQQKDVTIKSDAPDTLLLEKHADYIASYGSKKDDYEYCMSEYLRMSGVYWGLTVMDLMGQLHRMNKEEILVFIKSCQHECGGVSASIGHDPHLLYTLSAVQILTLYDSIHVINVDKVVAYVQSLQKEDGSFAGDIWGEIDTRFSFCAVATLALLGKLDAINVEKAIEFVLSCMNFDGGFGCRPGSESHAGQIYCCTGFLAITSQLHQVNSDLLGWWLCERQLPSGGLNGRPEKLPDVCYSWWVLASLKIIGRLHWIDREKLRSFILACQDEETGGFADRPGDMVDPFHTLFGIAGLSLLGEEQIKPVSPVFCMPEEVLQRVNVQPELVS | soluble
14 | MIRSSKRSLSRDLVRFVQYVDDCVVKRYGFVVKSGSGIKLNGKKPQGFGTSSEDEDNNADMSDDSEEVPVSSIDKRKVASSKSRTGVVIEGDVVKPPVMKFVVLDKNRNVCQVYGNRHDLTSSAEDDSVDGDEETLVMSRDNGRKQSLKARNGVSVKGGGGKTTRVVKTVSFDENGNVCKVYGDTHDLTSSAEDDDSVDVGEETLVMCRDEGKRRSSKTGSRVLVKGSGGKTNRVVKTVSFDENGNVYKAYGDTPESSIISEEDDSTSGSNEGNGEEKGNVNEVEEIKYVPKENESFEEEEEKETDSENEVSSSEGSEGDKRVTKKEVQHQKGSLMFSPPLPLKMEP | soluble
15 | MQSLDIKPTVGLIACCECGVAIEPNPANMCSGCLRSRVDITEGITRQCTIYMCKFCDRYFVPPSAWMRAELESKELLSICLKKLKPMLTKVRLTDACFVWTEAHSKRIKVKITIQKEVFTNTILQQAVVVEFTVHSQLCDDCRRAEAKDFWRACVQVRQRAEFKKTLFYLEQLLLKHSAHKECTGVKPVPTGIDFYFAKQQEARKFVDFLMTVLPCKYHYAQELVSHDTKNNTYDYKHTFCVEIVPICRDNIVCLPKKQAQQYGNMSQIVLCLRVSNVITLIDPNNLQLVDVQATNFWREPFDSLCGPKQLTEFYVLDVEPVNNFERKAGHGYVSKKHELADVWLVRSDQVGMSDAQSLSARTHIGHLLSPGDLVMAFDMKNCNVNNATFDAMNIDNVPDAIIVRKVFDRTRRTAKRQWKLKRLVVDGNIVGNETASVADEFQGFMEDIEEDALMREKINIYKDAEKGPNVDGDDAEDHPDAPTLAEMLDDLKFDDEEMKEAESAEDDEAMQE | not soluble
16 | GPGSMSSERYVDGDLGEPFNSAEPLTLPVVVQLLRGRRDTSLDHPASRLIEKTCRQVELMQETCADECRVQRVMETRLRLVNKNNRQQMNAHLGNFVVGEDGFATLPPESDDFLDTAEEEAMKMFEVVALGTLQPKTADEARELIPSLGRFEPADLNKVLEMLDSL | not soluble
17 | MKKIMILVAVISFFSFSDDIKIDRAVKESITKDFDQDGKYSAYEKALRKAQESIYVTLPEHRGYWYSTLDKIKAEEEELLPDETARMRRR | not soluble
18 | MGSDKIHHHHHHMKDILVHIDDSERCSARLDIAIGLAKTFGARLTGLFARTESHRPSAVAHKASDQLTQARDAAKEAFTKACASAGITSRWWQLAHGEPGHVVSETMFCARYADLVVMGQTEPKSKIVPEEMVEHVILHCGRPVLVVPHTGSFPSVGERMALAWNAGKEAVRALNDAKPLMLKAKSVTVLSLRGPADDGSNAMGEVPQVDVLDHLAACGITASAERLAGEHIGKMDMLLSRLCDLGADLVVMGAHGHYGLSLKRGTGTRYVLAHMTVPVLMSN | not soluble
